In patent US6127136A, “Detection of dioxin-like compounds by detection of transformed Ah receptor/ARNT complex” (Paracelsian, Inc., priority 1996, dated 2000):

Columns and labels:
transformed Ah receptor = target: T1, transformed Ah receptor (Cavia porcellus, UniProt Q6J287); assay: mini-Ah immunoassay (DRE affinity gel, dot-blot spot density), with or without added recombinant ARNT; assay type: biochemical, guinea pig (male Hartley, hepatic cytosol)
T1 construct: TCDD-transformed receptor captured as heterodimer on DRE-oligonucleotide gel; recombinant ARNT added in some protocols
T1 sequence (Q6J287 10-846): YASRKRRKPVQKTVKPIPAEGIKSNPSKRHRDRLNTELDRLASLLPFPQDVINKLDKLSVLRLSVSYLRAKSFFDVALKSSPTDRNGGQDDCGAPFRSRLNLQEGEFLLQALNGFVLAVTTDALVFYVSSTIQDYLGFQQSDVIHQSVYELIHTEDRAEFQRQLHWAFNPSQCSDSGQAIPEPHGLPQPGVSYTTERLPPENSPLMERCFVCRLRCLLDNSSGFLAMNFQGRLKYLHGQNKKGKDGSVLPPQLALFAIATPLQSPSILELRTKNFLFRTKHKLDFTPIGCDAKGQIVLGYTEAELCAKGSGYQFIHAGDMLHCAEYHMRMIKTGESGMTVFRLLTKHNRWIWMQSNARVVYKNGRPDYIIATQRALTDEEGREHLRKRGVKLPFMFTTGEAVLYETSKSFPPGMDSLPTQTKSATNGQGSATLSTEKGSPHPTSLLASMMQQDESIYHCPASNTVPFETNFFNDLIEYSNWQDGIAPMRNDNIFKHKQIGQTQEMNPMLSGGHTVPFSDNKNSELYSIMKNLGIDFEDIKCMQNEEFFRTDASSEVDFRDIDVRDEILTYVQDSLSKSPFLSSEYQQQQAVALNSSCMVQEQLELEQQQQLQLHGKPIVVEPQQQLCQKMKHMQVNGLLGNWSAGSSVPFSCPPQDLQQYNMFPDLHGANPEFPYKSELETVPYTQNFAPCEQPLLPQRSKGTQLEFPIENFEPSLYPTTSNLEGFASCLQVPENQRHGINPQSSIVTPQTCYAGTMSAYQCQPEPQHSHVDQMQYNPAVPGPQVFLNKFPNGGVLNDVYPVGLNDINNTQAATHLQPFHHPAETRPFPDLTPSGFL
T1 sequence (Q0WXX3 1-790 partner): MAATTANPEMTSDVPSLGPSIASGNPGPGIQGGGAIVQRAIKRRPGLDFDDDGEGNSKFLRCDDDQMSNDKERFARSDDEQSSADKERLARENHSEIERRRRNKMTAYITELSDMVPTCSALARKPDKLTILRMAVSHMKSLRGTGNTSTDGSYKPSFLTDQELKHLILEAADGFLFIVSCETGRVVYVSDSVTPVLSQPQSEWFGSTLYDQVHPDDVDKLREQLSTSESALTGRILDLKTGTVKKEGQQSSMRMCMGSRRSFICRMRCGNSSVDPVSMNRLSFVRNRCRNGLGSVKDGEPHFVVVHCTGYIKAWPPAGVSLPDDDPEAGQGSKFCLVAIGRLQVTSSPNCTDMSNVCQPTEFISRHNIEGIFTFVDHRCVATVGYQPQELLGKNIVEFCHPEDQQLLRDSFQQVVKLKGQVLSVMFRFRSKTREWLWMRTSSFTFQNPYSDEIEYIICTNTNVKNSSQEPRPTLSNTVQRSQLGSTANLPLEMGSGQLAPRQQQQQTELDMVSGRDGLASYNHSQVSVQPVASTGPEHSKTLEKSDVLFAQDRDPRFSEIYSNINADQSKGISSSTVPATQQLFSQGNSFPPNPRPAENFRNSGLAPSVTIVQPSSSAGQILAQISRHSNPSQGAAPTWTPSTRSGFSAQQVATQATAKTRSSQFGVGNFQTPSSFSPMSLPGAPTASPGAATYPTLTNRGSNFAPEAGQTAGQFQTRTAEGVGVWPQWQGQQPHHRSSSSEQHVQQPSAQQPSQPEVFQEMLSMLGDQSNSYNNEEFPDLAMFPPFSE
Method: (§1) Male Hartley guinea pigs weighing 300-350 g were obtained from Cornell Research Animal Resources, Cornell University, Ithaca, N.Y. Guinea pigs were anaesthetized and killed with carbon dioxide. Livers were perfused in situ with 100 mL ice-cold perfusion buffer, excised, trimmed of connective tissue, poorly perfused liver and gall bladder and weighed. The liver was minced and five mL of ice-cold HEDG per gram liver were added and the whole homogenized in a 50 mL homogenizer with teflon pestle using at 200 rpm for a total of seven strokes. Crude homogenate was centrifuged at 12,500 RPM in 50 mL tubes in a JA17 rotor in a Beckman J2-MI preparative centifuge at 4 degrees C for 20 minutes.
Procedure for the mini-Ah Immuno Assay
Preparation of Buffers: 155 uM TCDD stock was prepared by dissolving 1 mg 2,3,7,8-tetrachloro-dibenzo-p-dioxin (Cambridge Isotope Labs) in 20 mL DMSO (dimethylsulfoxide) overnight. 10 uM working dilution of TCDD was prepared by diluting 0.129 mL of the stock with 1.871 mL DMSO. 4M NaCl/HEDG was prepared by adding 116.88 g sodium chloride to 300 mL HEDG and adjusting the volume to 500 mL with HEDG. 0.3 M NaCl/HEDG was prepared by diluting 1.5 mL 4 M NaCl/HEDG to 20 mL with HEDG 0.6 M NaCl/HEDG was prepared by diluting 3.0 mL 4 M NaCl/HEDG to 20 mL with HEDG TBST was prepared by dissolving 1.18 g Tris-base, 6.35 g Tris-HCl, 8.76 g NaCL, and 2 mL Tween 20 in 800 mL water, adjusting volume to 1000 mL. Blocker was prepared by dissolving 10 g non-fat dry milk (Carnation) in 200 mL TBST. AP development buffer was prepared by dissolving 11 g Tris-base, 1.6 g Tris-HCl, 5.84 g Sodium Chloride, 10.2 g Magnesium Chloride hexahydrate, in 800 mL water and adjusting the volume to 1000 mL. BCIP stock was prepared by dissolving 100 mg BCIP (5-Bromo-4-Chloro-3-Indolyl Phosphate) in 2 mL N,N-Dimethylformamide, aliquoting into 66 uL portions, and freezing at -20 C until use. NBT stock was prepared by dissolving 250 mg NBT (Nitro Blue Tetrazolium) in 25 mL water, aliquoting into 660 uL proportions, and storing at -20 C until use. BCIP/NBT developer was prepared immediately before use by mixing one 66 uL aliquot of BCIP and one 660 uL aliquot of NBT in 20 mL AP development buffer.
(§2) For a typical mini-Ah immunoassay utilizing 12 samples, 5 mL of Transformed Ah Receptor Affinity Gel slurry described above was pipeted into a 50 mL conical tube. The slurry was washed with 40 mL HEDG and centifuged at 1000 g for 5 min, the supernatant withdrawn and discarded, the pellet washed with 40 mL HEDG, and centrifuged again. After the second centrifugation all but 5 mL of supernatant was withdrawn and the gel thus resuspended in the original volume. 10 mL guinea pig hepatic cytosol was thawed. The thawed cytosol was pooled and then divided into two 5 mL groups and treated with either 5 uL DMSO or 5 uL 10 uM TCDD in DMSO.
(§3) Assembly of transformation mixture:In the preferred embodiment of the mini-Ah immunoassay, each sample was composed of one 1.5 mL microfuge tube with the following sequential additions: 90 uL 4 M NaCl/HEDG, 400 uL Transformed Ah Receptor Affinity Gel slurry and 800 uL cytosol (treated with DMSO or TCDD as described above). The three components described above are the minimum components added at that step of the mini-Ah immunoassay. Any additional materials, such as ARNT, anti-ARNT and anti-Rabbit/alkaline phosphatase conjugate, were sometimes also added at this time as described in the specific examples. After assembly of the samples, the tubes were capped and the samples incubated at room temperature for 2 hours with gentle rocking to allow transformation of the Ah receptor to take place, interaction of transformed Ah receptor and ARNT, and binding of the transformed Ah receptor as a heteromer to the DRE oligonucleotide contained on the Transformed Ah Receptor Affinity Gel.
Isolation transformed Ah receptor: After the 2 hour incubation the mixtures were pipetted into the empty column barrels and allowed to drain. […]

[1] = target: transformed Ah receptor/ARNT complex (Cavia porcellus, UniProt Q6J287); assay: mini-Ah immunoassay with anti-ARNT detection of transformed Ah receptor/ARNT complex; assay type: biochemical, guinea pig (male Hartley, hepatic cytosol); parameters: AHR/ARNT heterodimer on DRE gel, anti-ARNT detection; in some samples recombinant baculovirus ARNT (Bradfield) added; details: Example 4
Chain of transformed Ah receptor/ARNT complex (Q6J287 10-846): as the sequence (Q6J287 10-846) above
Chain of transformed Ah receptor/ARNT complex (Q0WXX3 1-790 partner): as the sequence (Q0WXX3 1-790 partner) above
Chain of transformed Ah receptor/ARNT complex (P27540 whole entry partner): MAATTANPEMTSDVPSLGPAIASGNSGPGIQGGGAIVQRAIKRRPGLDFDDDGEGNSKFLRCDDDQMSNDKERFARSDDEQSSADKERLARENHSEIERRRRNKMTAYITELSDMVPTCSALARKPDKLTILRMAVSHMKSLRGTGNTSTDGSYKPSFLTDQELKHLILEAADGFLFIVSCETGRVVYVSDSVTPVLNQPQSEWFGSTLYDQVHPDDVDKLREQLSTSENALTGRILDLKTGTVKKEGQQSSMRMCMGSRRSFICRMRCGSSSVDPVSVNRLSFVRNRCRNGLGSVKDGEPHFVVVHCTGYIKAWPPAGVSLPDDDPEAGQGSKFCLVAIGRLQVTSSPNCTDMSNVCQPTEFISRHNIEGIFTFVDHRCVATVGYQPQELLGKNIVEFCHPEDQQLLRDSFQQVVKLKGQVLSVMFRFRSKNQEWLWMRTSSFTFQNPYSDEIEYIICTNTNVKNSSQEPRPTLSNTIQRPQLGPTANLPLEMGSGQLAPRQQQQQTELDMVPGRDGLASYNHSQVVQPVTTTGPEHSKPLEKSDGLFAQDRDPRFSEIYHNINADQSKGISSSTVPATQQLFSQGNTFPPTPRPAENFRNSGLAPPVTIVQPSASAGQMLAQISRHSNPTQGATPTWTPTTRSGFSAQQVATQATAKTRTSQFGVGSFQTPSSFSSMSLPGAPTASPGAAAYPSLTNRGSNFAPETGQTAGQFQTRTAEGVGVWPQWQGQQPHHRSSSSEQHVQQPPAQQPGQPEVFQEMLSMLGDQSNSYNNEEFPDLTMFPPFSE
Method: as §1, §2, §3
Immunoprobing of transformed Ah receptor: The nitrocellulose membrane was then removed from the ELIFA apparatus, rinsed briefly with water, and placed in 20 mL blocker containing test antibody. All antibodies were incubated with the nitrocellulose membrane for one hour at room temperature. When the test antibody was anti-Ah receptor/alkaine phosphatase conjugate, 100 uL anti-Ah receptor/alkaline phosphatase conjugate (1:200), per 20 mL blocker was used. When anti-ARNT was added to the transformation mixture, anti-Rabbit/alkaline phosphatase conjugate (Sigma, St. Louis, Mo.) diluted 1:1000 (20 uL to 20 mL blocker) was used to probe the membrane. When ARNT, anti-ARNT and anti-Rabbit or anti-ARNT and anti-Rabbit was added to the transformation mixture, the Immunoprobing step was eliminated.
Immunodetection and densitometry: In all cases the nitrocellulose membrane was rinsed prior to immunodetection 3 times for 5 min each with 100 mL TBST, briefly washed in AP development buffer and developed in freshly made BCIP/NBT developer for 5 min, whereupon the color reaction was stopped by washing the membrane in water.
Quantitative data were obtained by scanning the dried membrane in a Microtek 600ZS scanner in gray scale, 300 dpi, 0% brightness, 0% contrast. Densitometric measurements of the dot-blots were made using ScanAnalysis software (Biosoft, Cambridge U.K.).
Cytosol and DRE affinity gel are prepared as described above. Cytosol is dosed with 1:1000 v/v DMSO (-) or 1:1000 v/v 10 uM 2,3,7,8-tetrachlorodibenzo-p-dioxin in DMSO (+).
Immunoprobing of transformed Ah receptor is as described above with the following probes. […]

[2] = system: Ah receptor/ARNT complex (TCDD-transformed, endogenous in cytosol); assay: ELONA; details: EC50 is for TCDD dose, not DNA; 30 C, Ah-ELISA on neutravidin plate, anti-ARNT detection

Substance	effect of ARNT amount on response (transformed Ah receptor; 0.5 ug vs 2 ug ARNT, Example 2)	effect of ARNT addition on non-TCDD dependent transformation of the Ah receptor (transformed Ah receptor; ARNT 2 ug/assay, Example 1)	increase of TCDD-dependent response by ARNT addition (transformed Ah receptor; ARNT 2 ug/assay, Example 1) [%]	effect of ARNT addition on response [1]	EC50 [2] [nM]
ARNT: Purified recombinant ARNT (Ah Receptor Nuclear Translocator)	0.5 ug arnt gave less response than 2 ug ARNT	did not increase non-TCDD dependent transformation of the Ah receptor	354	improves response	
B-DRE (DRE-D/B-ERD)					0.5
